Experimental data: IntAct's records for PubMed 26258632

B1: Mitotic spindle assembly checkpoint protein MAD1 (Homo sapiens), Q9Y6D9 (parent)
chain: MEDLGENTMVLSTLRSLNNFISQRVEGGSGLDISTSAPGSLQMQYQQSMQLEERAEQIRSKSHLIQVEREKMQMELSHKRARVELERAASTSARNYEREVDRNQELLTRIRQLQEREAGAEEKMQEQLERNRQCQQNLDAASKRLREKEDSLAQAGETINALKGRISELQWSVMDQEMRVKRLESEKQELQEQLDLQHKKCQEANQKIQELQASQEARADHEQQIKDLEQKLSLQEQDAAIVKNMKSELVRLPRLERELKQLREESAHLREMRETNGLLQEELEGLQRKLGRQEKMQETLVGLELENERLLAKLQSWERLDQTMGLSIRTPEDLSRFVVELQQRELALKDKNSAVTSSARGLEKARQQLQEELRQVSGQLLEERKKRETHEALARRLQKRVLLLTKERDGMRAILGSYDSELTPAEYSPQLTRRMREAEDMVQKVHSHSAEMEAQLSQALEELGGQKQRADMLEMELKMLKSQSSSAEQSFLFSREEADTLRLKVEELEGERSRLEEEKRMLEAQLERRALQGDYDQSRTKVLHMSLNPTSVARQRLREDHSQLQAECERLRGLLRAMERGGTVPADLEAAAASLPSSKEVAELKKQVESAELKNQRLKEVFQTKIQEFRKACYTLTGYQIDITTENQYRLTSLYAEHPGDCLIFKATSPSGSKMQLLETEFSHTVGELIEVHLRRQDSIPAFLSSLTLELFSRQTVA

Variants of: B1
Details: with cenpe_human CENPE

Variant	effect of a mutation on the interaction
L17A;N18A;N19A;F20A;I21A	disrupting interaction strength

Variants of: B1
Details: with cenpe_human CENPE
Remark: another data set of the same source

Variant	effect of a mutation on the interaction
L17A;N18A;N19A;F20A;I21A	decreasing interaction strength
